Measured values taken from paper PMC4592070.

Target: ErbB1-mCitrine (UniProt P00533)
Experiment: FRET or BRET; confocal time-domain FLIM-FRET in live COS-7 cells at 37°C; donor ErbB1-mCitrine, acceptor an mCherry-labeled PTP1B chimera; cells starved overnight, recorded 2 min before and 14 min after EGF (100 ng/mL)

Row | average donor fluorescence lifetime (donor-only control 3.02 ns) | Substance
1 | 2.96 ns | mCherry-PTP1B^D/A-OMM (enzyme)
2 | 2.89 ns | mCherry-PTP1B^D/A-ER (enzyme)
